This data set can be described thus: soluble on expression in E. coli; label from the status in PepcDB or PDB records.
As for “MQFFDGYHYHGTTFEQSYRCYPASFIDKPQLESGDKIIMPPSALDRLASLHIDYPMLFELRNAGIERVTHCGVLEFIAEEGMIYMPYWMMQNLLLQEGDIVRVRNVTLPKGTYVKLQPHTTDFLDISNPKAILETALRNYSCLTSGDSIMVPYNNKKYFIDIVETKPANAISIIETDCEVDFAPPLDYKEPERPTAPSAAKGPAKAEEVVDEPEPKFNPFTGSGRRLDGRPLAYEPAPASSSKGKQPVVANGNGQSSVASSSEKATRAQGKLVFGANGNRAPKEAAPKVGAAKETKKEEQEKKDEPKFQAFSGKKYSLRG”, the “soluble on expression in E. coli” value was “soluble”.
For “MAGHSHWAQIKHKKAKVDAQRGKLFSKLIREIIVATRLGGPNPEFNPRLRTAIEQAKKANMPWENIERAIKKGAGELEGEQFEEVIYEGYAPGGVAVMVLATTDNRNRTTSEVRHVFTKHGGNLGASGCVSYLFERKGYIEVPAKEVSEEELLEKAIEVGAEDVQPGEEVHIIYTVPEELYEVKENLEKLGVPIEKAQITWKPISTVQINDEETAQKVIKLLNALEELDDVQQVIANFEIPEEILQKVGLEHHHHHH” the value was “not soluble”; for “MGSDKIHHHHHHMTSICICDDEKQQRNMLNKIITREMDLWGYPYQIKEYSNGESLVYNLEHENYYIDIIFLDIELGKSNGVDIAKTIRKHSKDTIIIFVTGFSDYVFHGYDVGALNYILKPYKTEKICKVLKEALKKLEQWKENFITVQIGTNLCKINTKDILYFKSELRKLTVVTFDKTLEYYGKLNDMETVLPSNFIRTHQRYIVNLNHVDSITQTYAKVQNEKIPISRKKYQEVVGKFTRYMLES”, “not soluble”.
Turning to “GSHMNGGRPPHHPYDAKDVSEYSCRELHYTRFLTDGPCRSAKPVTELVCSGQCGPARLLPNAIGRVKWWRPNGPDFRCIPDRYRAQRVQLLCPGGAAPRSRKVRLVASCKCKR”, the “soluble on expression in E. coli” value is “soluble”.
Take “SVFPQQTGQLAELQPQDRAGARASWMPMFQRRRRRDTHFPICIFCCGCCHRSKCGMCCKT”: the “soluble on expression in E. coli” value is recorded as “not soluble”.
Regarding “HVKLEQLGIPRQVLKYDDFLKSTQKSPATAPKPMPPRPPLPNQQFGVSLQHLQEKNPEQEPIPIVLRETVAYLQAHALTTEGIFRRSANTQVVREVQQKYNMGLPVDFDQYNELHLPAVILKTFLRELPEPLLTFDLYPHVVGFLNIDESQRVPATLQVLQTLPEENYQVLRFLTAFLVQISAHSDQNKMTNTNLAVVFGPNLLWAKDAAITLKAINPINTFTKFLLDHQGELFPSPDPSGL”, the “soluble on expression in E. coli” value is “soluble”.
The result for “MPRLALRQYNFYYRVNGEKAEELLKEYGEDGDFLLRYSESNPQNFSISVRVAEDKILHIKVTKYESDMLSIFEDERTTPNQFGSITELAEFYMEFPEKLREKNGLFLELKKPVYVPYHLEACAEEQRRTQLYRWWHGNLPASSANKLLQTEKNGTYLLRASQHIPGALVISAKTEGQVVHLTIYQDPSTGRFNIDGDRTKFQSAWLLIDSYSKNPIVEKGEASRVLYLEEPLFNTFIEADLFVDRFEIIRRPINPRESMEKTGISEEFDRLSQEALPAEQYLSKREGRRPVNAEKNRYKNIVPFDHTRVILTDRPNTPGSDYINASYVRFENSQRTKNVTFACEKSFIATQGCLETTISDFWSMVWQENSRVIVMPTMENERKEKCARYWPAEVNKPEVHGDISLTCTIERKVQRAVSDEVKAELEQEKTNRIAKGLVPEAELNGDGISYILRTLVMKKGKDTREIRQLQYLTWPDHGCPLHPYAVLNFLEDVDREYDYFNAQPIAASLPQGPIVVHCSAGIGRTGTVLVLDALLNQVKKVGLLCPMDVYKMVKYVRTYRSGLVQTEQQYQFLYKALAFYLKNNNPYPVKSFIDGDTDAFDFPRRLRPTPNASRPSSARQVTSSRPSSSASSRTSHSRPRTGPQAEPIFERSTSSTSSSSTLLKSTKK” reads “not soluble”.
Regarding “MGLIKENRMDSLKVSDYMTLQAVTFSPDMSLSAALEKVVRSDNMGGPVIDAQRHVIGFLSEQDLLDKLVHASYHCQDAHLVSDCMHKEVLSVAPETSIIELAAMMKVGKPKMYPVVSDGKLVGVITRRDVLRALSKTLTNCFQHPV”, the “soluble on expression in E. coli” value is given as “not soluble”.
Regarding “MAHHHHHHMLEDPNFSDFTGLHKSVTALTAANSDLARYGNELHKMILRYQLEVLSGTCNYVEVLSLAAYNGNLTAAEYVNNIEPVILGDDSVSVDIDTRTNTLSFRDSSKAKMLSYFNKIVANVDTVPASSLATTSGRYSDFTHVAASSSKREVMPLAADLDAARARSTSIYALQKACMNSKAERIEEAKKSEDKKRERAVAERREQEEAKKEETQKAYIRKLYAEYNERQRQERGKEVLRKLRIKYPGFKVDESIVYRSAAGFEDELTRLLAAFKRRGVDNDRKEILQANLYERALRALEIPKRKDYEAQNAERTRAERAAARENYLAEHRREYDRRQNEKAVLSKFLHDADEFERTWRKRANIDKPSKRDEQQRLLEEEMRRLGGE”, the “soluble on expression in E. coli” value is recorded as “not soluble”.
The result for “MGSDKIHHHHHHMAEINYQLIDFDNRGDLGLKNEPFELFGRMKIDRLNNNWSYEVEIFTHKRTMAFPDERYHLQEINQNGFALGAYDDSNCVGLAIYQKHWNKYLYLKDLKVNRDHRKLGIGNQLIKEGLRRAVQLGYKGVYAVCQDNNLAACQFYLKIGFQIGGFNDFDYNYTTQSGKSDIYFYLDKNSAR” reads “not soluble”; that for “MRGSHHHHHHTDPALRAASTFTSDTLPADHKAAIRQMKHALRAQLGDVQQIFNQLSDDIATRVAEINALKAQGDAVWPVLSYADIKAGHVTAEQREQIKRRGCAVIKGHFPREQALGWDQSMLDYLDRNRFDEVYKGPGDNFFGTLSASRPEIYPIYWSQAQMQARQSEEMANAQSFLNRLWTFESDGKQWFNPDVSVIYPDRIRRRPPGTTSKGLGAHTDSGALERWLLPAYQRVFANVFNGNLAQYDPWHAAHRTEVEEYTVDNTTKCSVFRTFQGWTALSDMLPGQGLLHVVPIPEAMAYVLLRPLLDDVPEDELCGVAPGRVLPVSEQWHPLLIEALTSIPKLEAGDSVWWHCDVIHSVAPVENQQGWGNVMYIPAAPMCEKNLAYAHKVKAALEKGASPGDFPREDYETNWEGRFTLADLNIHGKRALGMDVGLCGR”, “soluble”; that for “MGSSHHHHHHSSGLVPRGSHMIVREGSAEILVPEVYHGPGKRGTGFYNADQKINRDITIEFIKKMGIRNVLDGFGGTGIRGIRISKETDSAVTISEVSPDSYRLIRDNVERNGSQASVINDSFECVLQHGAYEYVDVDPYGSPVPYLDAALMGVKRNGFLGVTATDQSALTGSVPHKTRIRYDALIKNDTFRHEMGIRLLIGYMAKRAASLGRFIDPLISIWHGHYYRVFVRVRKGFEGAGRMMQNLGYVNKHNLLSGIYQDMDEGPVWKGNLQDNAVAEAVLASAGHKAFNPEENRLLFCDLTDIARARHTSLPDIESVIDALSSSGHAASRTMFSPTGIKTDASCDLVESLMMDTLHRRSPA”, “soluble”.
In the case of “NLLEEESAVLGQAVTNLMLSGDNVNNKNIILSLIHSLETTSDILKADVIRKTLEIVLRYTADDM”, the “soluble on expression in E. coli” value is given as “soluble”.
Turning to “MGIFSRFADIVNSNISALLDKAEDPEKMIRLIIQEMEDTLVEVRTNSAKAIADKKELARKVEMLEEQIGEWGQKASLALVKEREDLARAALIEKQKLEQVVKGLHTEQTLVEETINKLTGEIGKLENKIAETRAKQQALAIRNQTASNRRDVQKHLHTSRTNEAMAKFDQYSRKIDEMEAEADLYAQTGNAKSLEQEFAELQAQDEIEKELAKLKEQMSSQDKLEHHHHHH”, the “soluble on expression in E. coli” value is given as “soluble”.
With “MGSDKIHHHHHHAEVDQATKPAEAKYYIAGTITDATTGQELTTAKVTLGDKSVTSSFNEQVNYKAEGYALVVSADGYYPVKRQVYLNQVSDGQTSVATVNVALVSVEAAVIPPVVPPTDPETDINEGEATKVADKAVEVAKPSESTVTDMLAGTTATPEEKKALDETLEMAGGMKVGETTPEVLADGSILAITPVKFTNPIQDAPAMVPYFYNEGCELTGDVKEVAAPVTRADGAVAADIQKAFLSNAAKALNMNAGFVQKIGYTRISVLNGYSILGYTIKGQLVSKKLTFLISGKYYEGIVSYQKSVMIYPNYYSHDSHDSHDSHGFNPNAGGGSND”, the “soluble on expression in E. coli” value was “not soluble”.
The result for “MGSDKIHHHHHHMHLIDFMNEDIKKKLVKKTYKKKETILFAEQENEYVILMIDGIAEAFILNVKGNISTIHLYRSGSFFGEMEQFNDGKKPVEIVAFTDCNVYKLHRDDFLNWLRGDFEATKFLIREISSKLVVNAELIEELSSLSVKERLLRCISLHYYRSELNLLTKKQLASEVNAPIRSINRAINECVQEHLIAYENKRFSVINQREVLKNLPTT” reads “not soluble”.

The record behind these values is the DeepSol protein solubility set.
